Source: patent US20250313621A1 (NXERA PHARMA UK, published 2025)

T1: Wildtype human PAR2 expressed on cells (human, UniProt P55085 37-397)
T1 sequence: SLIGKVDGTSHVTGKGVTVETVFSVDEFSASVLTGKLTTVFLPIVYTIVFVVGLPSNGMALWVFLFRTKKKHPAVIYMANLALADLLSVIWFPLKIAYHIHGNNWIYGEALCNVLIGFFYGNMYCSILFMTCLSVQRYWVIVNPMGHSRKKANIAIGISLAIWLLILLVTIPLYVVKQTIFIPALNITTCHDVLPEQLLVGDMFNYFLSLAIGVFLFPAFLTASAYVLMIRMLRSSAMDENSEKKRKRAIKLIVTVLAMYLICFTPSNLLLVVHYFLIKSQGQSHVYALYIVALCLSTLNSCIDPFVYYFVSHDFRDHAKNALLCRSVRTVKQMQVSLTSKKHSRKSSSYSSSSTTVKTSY

T2: Soluble PAR2 StaR (recombinant human PAR2 StaR protein in detergent, construct not stated) (human, UniProt P55085 37-377, limits assumed)
T2 construct: also called purified PAR2
T2 sequence: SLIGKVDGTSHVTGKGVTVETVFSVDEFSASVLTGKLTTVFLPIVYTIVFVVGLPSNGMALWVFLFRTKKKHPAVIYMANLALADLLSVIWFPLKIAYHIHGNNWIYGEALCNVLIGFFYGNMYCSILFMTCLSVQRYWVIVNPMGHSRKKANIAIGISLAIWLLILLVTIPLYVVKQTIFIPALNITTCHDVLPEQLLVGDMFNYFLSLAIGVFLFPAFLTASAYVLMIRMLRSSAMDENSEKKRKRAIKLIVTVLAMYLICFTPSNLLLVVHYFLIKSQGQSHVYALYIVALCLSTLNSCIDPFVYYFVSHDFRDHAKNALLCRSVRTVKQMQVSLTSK

T3: PAR2-3: P157: 1-377, glycosylated, pBacMamHisStrepII, full length (human, UniProt P55085 26-377)
T3 construct: detergent-solubilised analyte in SPR, or on infected cells in flow cytometry; also called FL-N PAR2 StaR; FL-N StaR; not shown: C-terminal StrepII and deca-histidine tags
T3 sequence: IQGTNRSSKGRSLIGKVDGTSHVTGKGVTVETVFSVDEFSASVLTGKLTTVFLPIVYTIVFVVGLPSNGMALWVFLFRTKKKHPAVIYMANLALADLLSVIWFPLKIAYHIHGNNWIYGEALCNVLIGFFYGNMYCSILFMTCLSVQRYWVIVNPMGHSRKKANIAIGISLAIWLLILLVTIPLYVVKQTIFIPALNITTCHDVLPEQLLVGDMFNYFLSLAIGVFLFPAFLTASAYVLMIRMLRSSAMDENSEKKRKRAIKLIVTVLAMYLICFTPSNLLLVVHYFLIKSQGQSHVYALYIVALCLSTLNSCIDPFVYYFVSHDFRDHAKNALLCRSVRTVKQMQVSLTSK

T4: Wildtype human PAR 1 (human, UniProt P25116 42-425)
T4 sequence: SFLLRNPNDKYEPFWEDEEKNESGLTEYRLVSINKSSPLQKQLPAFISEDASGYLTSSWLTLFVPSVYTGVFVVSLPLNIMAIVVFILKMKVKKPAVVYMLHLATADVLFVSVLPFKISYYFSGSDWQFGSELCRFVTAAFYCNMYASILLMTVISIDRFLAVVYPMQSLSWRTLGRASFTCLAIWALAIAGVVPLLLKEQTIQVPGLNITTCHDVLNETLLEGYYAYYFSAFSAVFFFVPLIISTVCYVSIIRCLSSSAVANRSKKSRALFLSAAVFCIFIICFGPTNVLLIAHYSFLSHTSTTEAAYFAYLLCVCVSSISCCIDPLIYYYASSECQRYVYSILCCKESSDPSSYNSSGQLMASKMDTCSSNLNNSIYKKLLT


Columns and labels:
[1] = molecular target: T1, Wildtype human PAR2 expressed on cells; test: cell-based or functional assay
[2] = molecular target: T2, Soluble PAR2 StaR (recombinant human …); test: SPR Biacore T200; IgG captured, PAR2 as analyte; 25 C, 30 min dissociation
Procedure: (§1) The assay of PAR2 interaction with anti-PAR2 antibodies was carried out using a Biacore T200 instrument (GE Healthcare). Anti-human IgG antibody (Human Antibody Capture Kit, GE Healthcare) was immobilised by amine coupling in the target and reference flow cells of sensor chip CM3 (GE Healthcare) to a surface density of 2700 to 3000 resonance units (RU). Immobilisation was carried out at 25° C. in HBS-EP+buffer (GE Healthcare). The buffer was then changed to 50 mM HEPES, pH 7.5, 150 mM NaCl, 0.02% LMNG, 0.002% CHS for the PAR2-antibody interaction assay which was carried out at either 25 or 37° C. Each cycle of the assay began with antibody capture in the target flow cell to a level of 400 to 450 RU. PAR2 was then injected over target and reference flow cells at three concentrations, 5 min each, followed by 30-min dissociation. The surface was then regenerated with a solution provided in the kit (Human Antibody Capture Kit, GE Healthcare). With every antibody tested the first cycle was a blank (three injections of the running buffer) and the second a series of 50, 100, and 200 nM PAR2 injections.

[3] = molecular target: T2, Soluble PAR2 StaR (recombinant human …); test: SPR Biacore T200; IgG captured, PAR2 as analyte; 37 C, 30 min dissociation
Procedure: as §1

[4] = molecular target: T3, PAR2-3: P157: 1-377, glycosylated, …; test: SPR (table head: Octet); IgG captured via Fc, FL-N PAR2 StaR as analyte; koff at the lower assay limit (minimum 2.00E-05 reported)
Procedure: For all eleven IgG1f_AEASS, affinities to human PAR2 were determined by SPR. The IgGs were captured via their Fc-fragment and detergent (LMNG/CHS) solubilised FL-N PAR2 StaR was used as analyte in solution. 50 mM HEPES pH 7.5, 150 mM NaCl, 0.02% LMNG was used as assay buffer. To minimize artefacts introduced by non-specific interaction of FL-N PAR2 StaR with the sensors, the CM3 sensors were used as basis to immobilize a high density of anti-hu-Fc capture antibody (BR-1008-39, GE Healthcare). IgGs were captured with relatively high levels of approximately 500 RU to achieve a higher ratio of specific to non-specific binding (while still maintaining conditions suitable for kinetic characterization). Affinities ranged from 6.5 nM to 130 pM. The koff values of the best candidates were at the lower assay limit. A minimum koff of 2.00E-05 s⁻¹ was reported (corresponding to 3% dissociation in 1500 s).

Wildtype human PAR 1 = molecular target: T4, Wildtype human PAR 1; test: cell-based or functional assay
Rhesus PAR2 on cells = Rhesus PAR2 on cells (rhesus (Macaca mulatta)); test: cell-based or functional assay

| AP IC50, HT-29 FLIPR calcium mobilisation [1] [nM] | Trypsin IC50, HT-29 FLIPR calcium mobilisation [1] [nM] | Kd [2] [nM] | koff [2] [s⁻¹] | kon [2] [M⁻¹ s⁻¹] | t½ [2] [h] | Kd [3] [nM] | koff [3] [s⁻¹] | kon [3] [M⁻¹ s⁻¹] | t½ [3] [h] | koff [4] [s⁻¹] | Human PAR1 SFLLR IC50, IP-One (Wildtype human PAR 1) [nM] | SFLLR fold inhibition, human PAR1, IP-One (Wildtype human PAR 1) [fold] | IC50 (nM), SLIGKV agonist challenge, Rhesus (Rhesus PAR2 on cells) [nM] | Binder |
| --- | --- | --- | --- | --- | --- | --- | --- | --- | --- | --- | --- | --- | --- | --- |
| 17.8 | 40 | 0.43 | 1.2e-05 | 28000 | 16.1 | 0.45 | 1.9e-05 | 41000 | 10.3 | ≤ 2e-05 | > 3160 | 0 | 50 | Y022870 (antibody, human IgG1, lambda, V domains shown, also called Y22870) VH: EVQLLESGGGLVQPGGSLRLSCAASGFSFSRYAITWVRQAPGKGLEWVSTISALGLETYYAESVRGRFTISRDNSKNTLYLQMNSLRAEDTAVYYCARGFHYTHSGKRYYYPFDIWGQGTLVTVSS VL: QSALTQPASVSGSPGQSITISCTGTSSDVGSYNLVSWYQQHPGKAPKLMIYEGSKRPSGVSNRFSGSKSGNTASLTISGLQAEDEADYYCSQYATFIAFAVFGGGTKLTVLG |
| 44.3 | 49 | 0.23 | 5.1e-06 | 22000 | 37.9 | 0.55 | 1.7e-05 | 31000 | 11.5 | 2e-05 | > 3160 | 0 | 47 | Y022877 (antibody, human IgG1, lambda, V domains shown, also called Y22877) VH: EVQLLESGGGLVQPGGSLRLSCAASGFTFSRYAMTWVRQAPGKGLEWVSTISGLGQEAYYAGSVKGRFTISRDNSKNTLYLQMNSLRAEDTAVYYCARGFHYTHSGKRYYYPFDIWGQGTLVTVSS VL: QSALTQPASVSGSPGQSITISCTGTSSDVGSYNLVSWYQQHPGKAPKLMIYEGSKRPSGVSNRFSGSKSGNTASLTISGLQAEDEADYYCSQYATFIAFAVFGGGTKLTVLG |
| 42 | 47 | 0.2 | 8.1e-06 | 40000 | 23.7 | 0.65 | 2.3e-05 | 36000 | 8.3 | 2e-05 | > 3160 | 0 | 43 | Y022883 (antibody, human IgG1, lambda, V domains shown, also called Y22883; Y02283) VH: EVQLLESGGGLVQPGGSLRLSCAASGFSFTRYAISWVRQAPGKGLEWVSVISGHGSEANYAESVKGRFTISRDNSKNTLYLQMNSLRAEDTAVYYCARGFHYTHSGKRYYYPFDIWGQGTLVTVSS VL: QSALTQPASVSGSPGQSITISCTGTSSDVGSYNLVSWYQQHPGKAPKLMIYEGSKRPSGVSNRFSGSKSGNTASLTISGLQAEDEADYYCSQYATFIAFAVFGGGTKLTVLG |
